Data from patent US20230020546A1, “APPLICATION OF PROGESTIN IN PREPARATION OF DRUG INHIBITING CYTOKINE STORM” (SHENZHEN EVERGREEN THERAPEUTICS CO., LTD., priority 2020, published 2023).

How the values were obtained:
hu-SCID mice [1] = assay: Rectal temperature after antibody injection in hu-SCID mice; format: in vivo
hu-SCID mice [2] = conditions: mouse, in vivo, ip
Protocol: (§1) Each humanized mouse for the test was first intravenously injected with 2×10^7 PBMCs. After 10 days, each mouse was injected with OKT3 or control IgG (2 μg or 10 μg, IV or IP).
(§2) Clinical score measurement: as recommended by the Canadian Council for Animal Care (www.ccac.ca/en /standards/guidelines), we conducted preliminary studies to determine the most appropriate clinical symptoms and scoring criteria. […] Score: 0=normal activity; 1=normal activity, hairs upright, and tiptoe gait; 2=arched back, decreased activity, but there are still activities; 3=too few activities, but there are still activities when prompted; 4=dying. Mice with a clinical score of 4 were sacrificed.

hu-SCID mice [3] = assay: Clinical symptoms / clinical score after antibody injection in hu-SCID mice
Protocol: as §1, §2

[4] = tested on: circulating cytokines in hu-SCID mice; assay: Circulating cytokines in plasma of hu-SCID mice after OKT3 injection (multiplex immunoassay); format: in vivo; conditions: for IFN-γ Concentration / IL-1β Concentration / IL-2 Concentration / IL-4 Concentration / IL-5 Concentration / IL-6 Concentration / IL-10 Concentration / TNF-α Concentration: OKT3 10 μg IP alone; for Inhibition of OKT3-induced immune (cytokine) storm in an animal model: hu-SCID mice, overall conclusion
Protocol: […] A multiplex immunoassay system was then applied to the collected heparinized plasma to analyze cytokines. Cytokines measured included human IL-1β, IL-2, IL-4, IL-5, IL-6, IL-10, IL-12 (p70), IL-13, IL-17, IFN-γand TNF-α. […] The activation markers thereof were then analyzed by flow cytometry. Human peripheral blood mononuclear cells in the mouse spleen were blocked with 2.4G2 and then stained with fluorescently labeled CD69, CD25, CD45 and CD3.
After antibody injection, in order to determine if a cytokine storm was induced, we detected cytokines (human IL-1β, IL-2, IL-4, IL-5, IL-6, IL-10, IL-12 (p70), IL-13, IL17, IFN-γ and TNF-α) in the plasma of the hu-SCID mice.
On days 8 and 9 after intravenous injection of PBMCs in humanized mice (48 hours and 24 hours before antibody injection), a candidate drug PR2005 (5 mg/kg) was injected intraperitoneally to the animals. […] The results are detailed in Tables 1-4.

OKT3: muromonab-CD3 antibody used to induce the cytokine storm in hu-SCID mice
Rectal temperature (hu-SCID mice [1]; OKT3 2 μg IP, 0 h): 37.7 °C | Rectal temperature (hu-SCID mice [1]; OKT3 2 μg IP, 1 h): 35.6 °C | Rectal temperature (hu-SCID mice [1]; OKT3 2 μg IP, 2 h): 34.8 °C | Rectal temperature (hu-SCID mice [1]; OKT3 2 μg IP, 5 h): 35.4 °C | Rectal temperature change (hu-SCID mice [1]; OKT3 2 μg IP, similar to control human IgG): moderate changes | Rectal temperature (hu-SCID mice [1]; OKT3 2 μg IV, 0 h): 37.7 °C | Rectal temperature (hu-SCID mice [1]; OKT3 2 μg IV, 1 h): 31.7 °C | Rectal temperature (hu-SCID mice [1]; OKT3 2 μg IV, 2 h): 33.8 °C | Rectal temperature (hu-SCID mice [1]; OKT3 2 μg IV, 5 h): 34.9 °C | Transient hypothermia (rectal temperature) (hu-SCID mice [1]; OKT3 2 μg IV, at 1 h, partial recovery after 5 h): about 32 °C | Rectal temperature decrease (from 37° C.) (hu-SCID mice [1]; OKT3 10 μg IP or IV, within 1 h): ≤ 32 °C | Rectal temperature (hu-SCID mice [1]; OKT3 10 μg IP, 0 h): 37.7 °C | Rectal temperature (hu-SCID mice [1]; OKT3 10 μg IP, 1 h): 31.7 °C | Rectal temperature (hu-SCID mice [1]; OKT3 10 μg IP, 2 h): 31.1 °C | Rectal temperature (hu-SCID mice [1]; OKT3 10 μg IP, 5 h): 30.6 °C | Rectal temperature (hu-SCID mice [1]; OKT3 10 μg IV, 0 h): 37.7 °C | Rectal temperature (hu-SCID mice [1]; OKT3 10 μg IV, 1 h): 31.9 °C | Mice dying and sacrificed (hu-SCID mice [2]): one of 5 | Symptom observation (hu-SCID mice [3]; OKT3 2 μg IP): unaffected | Mice needing to be euthanized (hu-SCID mice [3]; OKT3 2 μg IV): Two of four | Response (symptoms) (hu-SCID mice [3]; OKT3 2 μg IV, within 1 h): moderate to severe | Clinical score (hu-SCID mice [3]; OKT3 10 μg IP): moderate | Response (symptoms) (hu-SCID mice [3]; OKT3 10 μg IV): severe | Mice sacrificed (hu-SCID mice [3]; OKT3 10 μg IV, at 1 h): all mice were sacrificed | Induced cytokines ([4]; OKT3 2 μg IP or IV, any time point): rarely detected | Time of TNF-α peak ([4]; OKT3 10 μg IP): 1 h | IFN-γ Concentration ([4]; 1 h): 7015 pg/mL | IL-1β Concentration ([4]; 1 h): 44.0 pg/mL | IL-2 Concentration ([4]; 1 h): 39.0 pg/mL | IL-4 Concentration ([4]; 1 h): 61 pg/mL | IL-5 Concentration ([4]; 1 h): 72 pg/mL | IL-6 Concentration ([4]; 1 h): 96 pg/mL | IL-10 Concentration ([4]; 1 h): 3319 pg/mL | TNF-α Concentration ([4]; 1 h): 1409 pg/mL | IFN-γ Concentration ([4]; 2 h): 23574 pg/mL | IL-1β Concentration ([4]; 2 h): 77.5 pg/mL | IL-2 Concentration ([4]; 2 h): 75.9 pg/mL | IL-4 Concentration ([4]; 2 h): 182 pg/mL | IL-5 Concentration ([4]; 2 h): 98 pg/mL | IL-6 Concentration ([4]; 2 h): 160 pg/mL | IL-10 Concentration ([4]; 2 h): 11001 pg/mL | TNF-α Concentration ([4]; 2 h): 1127 pg/mL | IFN-γ Concentration ([4]; 5 h): 25783 pg/mL | IL-1β Concentration ([4]; 5 h): 97.4 pg/mL | IL-2 Concentration ([4]; 5 h): 89.4 pg/mL | IL-4 Concentration ([4]; 5 h): 259 pg/mL | IL-5 Concentration ([4]; 5 h): 158 pg/mL | IL-6 Concentration ([4]; 5 h): 252 pg/mL | IL-10 Concentration ([4]; 5 h): 20052 pg/mL | TNF-α Concentration ([4]; 5 h): 655 pg/mL | Induction of cytokines (IL-1β, IL-2, IL-4, IL-5, IL-6, IL-10, IFN-γ) ([4]; OKT3 10 μg IP, concentrations gradually increased within 5 h): may induce production of multiple cytokines

CCCCCC(=O)O[C@]1(C(C)=O)CC[C@H]2[C@@H]3CCC4=CC(=O)CC[C@]4(C)[C@H]3CC[C@@]21C [PR2005, hydroxyprogesterone caproate, reference compound]
Body temperature change after receiving OKT3 (hu-SCID mice [1]; PR2005 5 mg/kg IP, 48 hours and 24 hours before antibody injection): no significant changes in body temperature | Concentration of cytokines in the blood vs animals using OKT3 alone ([4]; PR2005 5 mg/kg IP before OKT3): substantially lower | Inhibition of OKT3-induced immune (cytokine) storm in an animal model [4]: can inhibit the OKT3-induced immune storm | Inhibition of OKT3-induced immune (cytokine) storm in an animal model ([4]; listed as hydroxyprogesterone caproate): can inhibit the cytokine storm
